Measured values from article PMC314469, “Protein Interaction Networks by Proteome Peptide Scanning” (PLoS Biology, 2004).

biological target: Sho1 SH3 (SHO1_YEAST), P40073; experiment: SPOT array
Sequence (P40073 295-366): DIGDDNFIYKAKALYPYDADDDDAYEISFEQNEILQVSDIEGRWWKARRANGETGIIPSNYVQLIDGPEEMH

| normalised SPOT signal, Boehringer light units (BLU); mean over the file's lines of this peptide | Binder |
| --- | --- |
| 141 | MVLPPAPPKNSDPS [764-777 mitohcondrial RNA polymerase] |
| 67 | LSTPSAPAKINNYS [605-618 Hypothetical ORF] |
| 148 | LTSPKNPIKSVTKF [569-582 translation termination factor eRF3] |
| 184 | LRKPRAPMRNVIIT [449-462 cytochrome oxidase assembly factor] |
| 181 | MKAPKMPDKHRDNY [923-936 similar to RNA helicases] |
| 122 | LRDPVIPIKLAAEK [2564-2577 translational activator of GCN4 through activation of GCN2 in response to starvation] |
| 977 | LRLPEIPPKGDFDV [1327-1340 mitohcondrial RNA polymerase] |

Further lines, the binder ahead of its results:

| Binder | normalised SPOT signal, Boehringer light units (BLU); mean over the file's lines of this peptide |
| --- | --- |
| LQIPPLPLKLLTPV [307-320 encodes the cytoplasmic trifunctional enzyme C1-tetrahydrofolate synthase] | 48.1 |
| MALPRTPLKTSTEE [276-289 Small regulatory subunit of Acetolactate synthase] | 1100 |
| LSKPSKPLKEIRFD [101-114 Hypothetical ORF] | 477 |
| LVTPEEPAKNKSER [13-26 Hypothetical ORF] | 102 |
| LTLPFGPVKSIWLS [189-202 glucosyltransferase] | 96.7 |
| LVQPNVPEKHNMST [144-157 Hypothetical ORF] | 182 |
| LRSPNTPRRLRKTL [198-211;312-325;376-389;96-109 Hypothetical ORF;Y'-helicase protein 1] | 200 |
| MVTPSKPPKKSVGF [147-160 Hypothetical ORF] | 749 |
| MEYPFKPPKMQFDT [60-73 ubiquitin-conjugating enzyme] | 164 |
| MLIPNFPNKKLKLN | 415 |
| MSLPVTPVKSKVSS [50-63 Putative participant in 3' mRNA processing] | 284 |
| MVRPAPPRRADPEG [11-24 Hypothetical ORF] | 608 |
| LSLPRLPNKHHWPL [116-129 Hypothetical ORF] | 2570 |
| LRRPIFPGRDYRHQ [218-231 cdc2+/CDC28 related kinase with positive role in conjugation] | 112 |
| LVQPVVPDKVFSFR [368-381 Hypothetical ORF] | 46.1 |
| LSSPSLPPKVNATN [325-338 Guanosine diphosphatase of Golgi membrane] | 88 |
